For assay [1], the target named is T1, cynomolgus monkey PRL (cynomolgus monkey, UniProt A0A2K5X975 30-228).
T1 sequence: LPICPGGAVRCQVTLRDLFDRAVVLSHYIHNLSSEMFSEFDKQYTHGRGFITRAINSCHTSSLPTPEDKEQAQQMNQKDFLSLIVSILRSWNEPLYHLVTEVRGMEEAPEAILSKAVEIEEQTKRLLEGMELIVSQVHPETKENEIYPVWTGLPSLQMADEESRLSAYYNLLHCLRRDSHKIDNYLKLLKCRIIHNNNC
Briefly: cell-based or functional assay.

For another assay, the target named is human placental lactogen (human, UniProt P0DML2 27-217). Briefly: cell-based or functional assay.
In assay [2] the target is T2, mouse PRL (mouse, UniProt P06879 30-226).
T2 sequence (looked up): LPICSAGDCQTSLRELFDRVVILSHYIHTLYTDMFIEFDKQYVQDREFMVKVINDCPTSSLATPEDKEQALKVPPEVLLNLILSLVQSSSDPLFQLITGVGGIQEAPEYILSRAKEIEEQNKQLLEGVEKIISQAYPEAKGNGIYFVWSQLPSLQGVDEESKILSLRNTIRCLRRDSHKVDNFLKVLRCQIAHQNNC
Briefly: cell-based or functional assay.

Assay [3] concerns the target T3, human prolactin (human, UniProt P01236 29-227).
T3 sequence (looked up): T1 sequence with V9A, Q43R, R53K, P64A, E106Q, T151S
Briefly: cell-based or functional assay.

The target in another assay is human growth hormone (human, UniProt P01241 27-217). Briefly: cell-based or functional assay.
The target in assay [4] is T1, cynomolgus monkey PRL. Briefly: bio-layer interferometry (Octet-RED96), antibody captured on anti-human IgG Fc sensors, 1:1 fit. (In general: Biolayer interferometry detects binding as a change in optical thickness at a sensor tip.)
Assay [5] concerns the target T3, human prolactin. Briefly: bio-layer interferometry (Octet-RED96), antibody captured on anti-human IgG Fc sensors, 1:1 global fit.
Assay [6] has as its target T2, mouse PRL. Briefly: bio-layer interferometry (Octet-RED96), antibody captured on anti-human IgG Fc sensors; kinetics not determined.

Numbering of substitutions follows the chain as printed. In names and notes the source's numbering stands. Where only a bound is given, the exact number is not on record here.

Sequence of human placental lactogen (P0DML2 27-217 limits assumed): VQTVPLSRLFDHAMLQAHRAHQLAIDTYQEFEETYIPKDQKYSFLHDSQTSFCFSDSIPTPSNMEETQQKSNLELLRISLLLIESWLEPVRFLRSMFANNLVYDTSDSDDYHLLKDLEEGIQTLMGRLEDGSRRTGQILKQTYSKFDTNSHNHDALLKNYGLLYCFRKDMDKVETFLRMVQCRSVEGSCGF
Sequence of human growth hormone (P01241 27-217 limits assumed): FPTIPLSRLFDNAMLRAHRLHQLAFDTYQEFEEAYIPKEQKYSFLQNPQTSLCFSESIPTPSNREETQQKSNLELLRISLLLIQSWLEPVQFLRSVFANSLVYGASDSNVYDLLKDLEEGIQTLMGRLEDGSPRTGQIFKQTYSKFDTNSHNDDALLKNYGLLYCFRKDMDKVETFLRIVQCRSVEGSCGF

B1: Antibody 37 (antibody, human IgG4 S228P, kappa, V domains shown)
VH: QVQLVQSGAEVKKPGASVKVSCKASGYTFSNFWIEWVRQAPGQRLEWMGEIFPGTGSTYYTEKFKVRVTITRDTSASTAYMELSSLRSEDTAVYYCARRGYSDSWFAHWGQGTLVTVSS
VL: DIQMTQSPSSLSASVGDRVTITCRASESVDMYGKSFMHWYQQKPGKAPKLLIYRASTLESGVPSRFSGSGSGTDFTLTISSLQPEDFATYYCQQNVEAPLTFGGGTKVEIKR
notes: Humanized IgG4(S228P), IGHV1-3 heavy and IGKV1-39 light frameworks; also called humanized anti-hPRL antibody
Regarding B1, the “IC50 in the in vitro CHO-hPRLR phospho-STAT5 cell signaling assay” value is 4.7 nM with cynomolgus monkey PRL [1]; greater than 3620 nM with human placental lactogen; greater than 150 nM with mouse PRL [2]; 3.1 nM with human prolactin [3]; greater than 150 nM with human growth hormone. The figures for the Kd in the assay with cynomolgus monkey PRL [4], with human prolactin [5] and with mouse PRL [6] were 0.565 nM, 0.621 nM and greater than 100 nM, respectively. For the same molecule, the koff (as a rule, the first-order rate constant of dissociation) was determined as 0.000307 s⁻¹ in the assay with cynomolgus monkey PRL [4] and 0.000215 s⁻¹ with human prolactin [5]. The kon (commonly a measure of how fast the partners come together) is 543000 M⁻¹ s⁻¹ in the assay with cynomolgus monkey PRL [4] and 347000 M⁻¹ s⁻¹ in the assay with human prolactin [5].
